One data set concerns FnCpf1 (Cas12a). Kind of data set: smFRET titration. Conditions: amino-dT in non-target strand, pH 8.0 ([…]) or pH 7.0 ([…].
Data set [1] concerns AsCpf1 (Cas12a) (Acidaminococcus sp.?). The data set is described as follows: smFRET titration. Conditions: amino-dT in non-target strand, pH 8.0 ([…]) or pH 7.0 ([…].

The results in this text go back to doi:10.1101/205575.

Regarding “cognate DNA target (nPD=0) with Cy5 guide-RNA”, the Kd (as a rule, a measure of binding affinity in units of concentration) with FnCpf1 (Cas12a) was 0.27 nM; in data set [1], 0.1 nM.
